Test results: publication PMC7721913 (The Journal of Cell Biology, 2020)

Target: KLC1 TPR1-6 fragment (human KNS2 residues 205-501) (human, UniProt Q07866 205-501)
Assay: ITC

KLC1 TPR1-6 fragment (human KNS2 residues 205-501), sequence (Q07866 205-501): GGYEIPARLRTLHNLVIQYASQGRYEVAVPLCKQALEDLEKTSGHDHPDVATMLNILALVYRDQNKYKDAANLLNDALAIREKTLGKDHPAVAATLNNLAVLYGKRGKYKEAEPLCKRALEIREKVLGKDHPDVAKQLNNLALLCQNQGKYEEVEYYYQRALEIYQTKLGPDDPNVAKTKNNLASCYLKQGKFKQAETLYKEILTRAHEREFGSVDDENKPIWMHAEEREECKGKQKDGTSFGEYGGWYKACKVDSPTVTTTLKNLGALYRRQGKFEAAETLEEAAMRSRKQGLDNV

- Kd: 3.83 ± 2.31 µM
- dH: -2.05 ± 0.438 kcal/mol
- stoichiometry N: 0.964 ± 0.143
Binder: ESEMEDAYHEHQANLLR [WT SFPQ peptide spanning the Y-acidic motif]
